From patent US20230330251A1, “METHODS FOR TREATING CANCERS WITH ANTIBODY DRUG CONJUGATES (ADC) THAT BIND TO 191P4D12 PROTEINS” (AGENSYS, INC., priority 2020, published 2023)

Tested on: subjects with previously treated locally advanced or metastatic urothelial cancer
Conditions: in vivo
From the text: The Safety Analysis Set (SAF) will be used for the safety analysis. All subjects who are randomized and received study drug will be included in the SAF. The frequency of AEs and the serious AEs will be summarized by MedDRA system organ class and preferred term. In addition, summary statistics will be provided for the following safety parameters: • Laboratory values • Vital sign measurements • ECOG PS
An AE is any untoward medical occurrence in a subject, temporally associated with the use of a medicinal product, whether or not considered related to the medicinal product. An AE can therefore be any unfavorable and unintended sign (including an abnormal laboratory finding), symptom, or disease (new or exacerbated) temporally associated with the use of a medicinal product.
AEs, including abnormal clinical laboratory values, will be graded using the NCI-CTCAE guidelines (Version 4.03).
The safety analysis set (SAF), which consists of all subjects who received any amount of study drug, will be used for safety analyses.
SAF was used to perform all safety analysis. All treated subjects were analyzed according to the treatment they received.
The number and percentage of AEs by severity were also summarized. All AEs were listed.
A study drug-related TEAE is defined as any TEAE with a causal relationship of YES by the investigator. AEs of interest as classified by customized MedDRA queries and/or standard MedDRA queries were also summarized.

enfortumab vedotin
Death, %: (43.9%) | Drug-Related Serious TEAE, %: (22.6%) | Drug-Related TEAE Leading to Death, %: (2.4%) | Drug-Related TEAE Leading to Death, Exclusing Disease Progression, %: (2.4%) | Drug-Related TEAE Leading to Withdrawal of Treatment, %: (13.5%) | Drug-Related TEAE with CTCAE Grade >=3, %: (51.4%) | Drug-Related TEAE, %: (93.9%) | Serious TEAE, %: (46.6%) | TEAE Leading to Death, %: (7.1%) | TEAE Leading to Death, Exclusing Disease Progression, %: (3.7%) | TEAE Leading to Withdrawal of Treatment, %: (17.2%) | TEAE Leading to dose interruption, %: (60.8) % | TEAE Leading to dose reduction, %: (34.1) % | TEAE with CTCAE Grade >=3, %: (70.9%) | TEAE, %: (98.0%) | TEAE: Alopecia, %: (47.0) % | TEAE: Anemia, %: (19.9) % | TEAE: Constipation, %: (27.7) % | TEAE: Decreased appetite, %: (40.9) % | TEAE: Diarrhea, %: (34.8) % | TEAE: Dysgeusia, %: (25.0) % | TEAE: Fatigue, %: (36.1) % | TEAE: Nausea, %: (30.1) % | TEAE: Peripheral sensory neuropathy, %: (34.5) % | TEAE: Pruritis, %: (34.5) % | TEAE: Pyrexia, %: (22.0) % | TRAE Leading to dose interruption: Anemia, %: (2.7) % | TRAE Leading to dose interruption: Asthenia, %: (2.0) % | TRAE Leading to dose interruption: Diarrhea, %: (2.0) % | TRAE Leading to dose interruption: Drug eruption, %: (2.4) % | TRAE Leading to dose interruption: Fatigue, %: (5.4) % | TRAE Leading to dose interruption: Neuropathy peripheral, %: (3.0) % | TRAE Leading to dose interruption: Neutropenia, %: (2.0) % | TRAE Leading to dose interruption: Neutrophil count decreased, %: (5.1) % | TRAE Leading to dose interruption: Peripheral sensory neuropathy, %: (15.5) % | TRAE Leading to dose interruption: Rash maculo-papular, %: (4.4) % | TRAE Leading to dose interruption: Rash, %: (3.4) % | TRAE Leading to dose reduction: Decreased appetite, %: (3.4) % | TRAE Leading to dose reduction: Fatigue, %: (2.7) % | TRAE Leading to dose reduction: Neutropenia, %: (1.7) % | TRAE Leading to dose reduction: Neutrophil count decreased, %: (2.0) % | TRAE Leading to dose reduction: Peripheral sensory neuropathy, %: (7.1) % | TRAE Leading to dose reduction: Rash maculo-papular, %: (4.4) % | TRAE Leading to dose withdrawal: Peripheral sensory neuropathy, %: (2.4) %
